The text below walks through data of publication PMC5823934, “EGF receptor kinase suppresses ciliogenesis through activation of USP8 deubiquitinase” (Nature Communications, 2018).

The assay addresses T1, GST-USP8 (human, UniProt P40818 1-1118).
T1 construct: USP8 deubiquitinase, human cDNA FLJ76940 from the Human Gene and Protein Database, inserted in frame to GST in pGEX-6P-3 (BamHI/XhoI); Wild type; also called bacterially purified GST-USP8; source: E. coli BL21 (DE3), purified (glutathione-sepharose 4B)
T1 sequence (looked up): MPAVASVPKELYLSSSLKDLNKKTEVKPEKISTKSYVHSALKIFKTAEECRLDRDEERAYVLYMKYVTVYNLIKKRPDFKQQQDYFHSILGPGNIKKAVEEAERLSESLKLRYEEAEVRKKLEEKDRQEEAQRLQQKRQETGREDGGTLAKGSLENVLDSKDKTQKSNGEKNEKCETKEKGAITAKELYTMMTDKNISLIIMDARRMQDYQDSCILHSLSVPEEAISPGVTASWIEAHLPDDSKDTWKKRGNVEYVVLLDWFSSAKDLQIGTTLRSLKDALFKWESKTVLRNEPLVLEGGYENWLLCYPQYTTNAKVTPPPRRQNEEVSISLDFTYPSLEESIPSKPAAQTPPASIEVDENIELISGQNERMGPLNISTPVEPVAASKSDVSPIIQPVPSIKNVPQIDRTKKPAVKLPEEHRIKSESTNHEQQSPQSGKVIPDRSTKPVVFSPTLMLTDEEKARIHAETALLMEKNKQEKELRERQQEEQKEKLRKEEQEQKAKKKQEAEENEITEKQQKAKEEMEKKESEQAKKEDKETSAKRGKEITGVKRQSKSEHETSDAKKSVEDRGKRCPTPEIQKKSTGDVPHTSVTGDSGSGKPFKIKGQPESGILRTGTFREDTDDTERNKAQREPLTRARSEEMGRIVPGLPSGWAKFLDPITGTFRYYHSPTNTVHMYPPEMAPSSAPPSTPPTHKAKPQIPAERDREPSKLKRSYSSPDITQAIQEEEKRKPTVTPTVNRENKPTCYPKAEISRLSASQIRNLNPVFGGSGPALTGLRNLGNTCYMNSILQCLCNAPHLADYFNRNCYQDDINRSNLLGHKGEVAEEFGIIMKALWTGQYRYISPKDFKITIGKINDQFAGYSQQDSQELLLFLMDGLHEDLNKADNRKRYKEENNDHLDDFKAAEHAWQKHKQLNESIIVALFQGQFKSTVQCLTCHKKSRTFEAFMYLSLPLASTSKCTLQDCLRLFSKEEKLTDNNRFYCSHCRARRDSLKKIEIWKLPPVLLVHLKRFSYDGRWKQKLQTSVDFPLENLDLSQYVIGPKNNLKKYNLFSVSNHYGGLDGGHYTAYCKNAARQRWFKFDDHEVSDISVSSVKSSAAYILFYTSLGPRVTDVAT
The experiment in a line: pull-down; MBP-trichoplein (1 ug) and GST-USP8 (1 ug) in cell lysis buffer (20 mM Tris-HCl pH 7.5, 150 mM NaCl, 2 mM beta-glycerophosphate, 2 mM EGTA, 1% Triton X-100), 2 h at 4 °C; glutathione-sepharose 4B; immunoblot. The note with it: both partners purified.

B1: MBP-trichoplein (natural protein, human, UniProt Q9BT92 1-498, looked up)
chain: MALPTLPSYWCSQQRLNQQLARQREQEARLRQQWEQNSRYFRMSDICSSKQAEWSSKTSYQRSMHAYQREKMKEEKRRSLEARREKLRQLMQEEQDLLARELEELRLSMNLQERRIREQHGKLKSAKEEQRKLIAEQLLYEHWKKNNPKLREMELDLHQKHVVNSWEMQKEEKKQQEATAEQENKRYENEYERARREALERMKAEEERRQLEDKLQAEALLQQMEELKLKEVEATKLKKEQENLLKQRWELERLEEERKQMEAFRQKAELGRFLRHQYNAQLSRRTQQIQEELEADRRILQALLEKEDESQRLHLARREQVMADVAWMKQAIEEQLQLERAREAELQMLLREEAKEMWEKREAEWARERSARDRLMSEVLTGRQQQIQEKIEQNRRAQEESLKHREQLIRNLEEVRELARREKEESEKLKSARKQELEAQVAERRLQAWEADQQEEEEEEEARRVEQLSDALLQQEAETMAEQGYRPKPYGHPKIAWN
notes: also called recombinant MBP-trichoplein; source: E. coli BL21 CodonPlus RP, purified (amylose resin)
As to B1, the binding result is listed as “binds”.
